Series [1] concerns the molecule itself. The experiment in a line: crystal structure.
Series [2] has as its target K6 diUb phosphorylated on S65 of the proximal Ub (UniProt P0CG47, K6R). The experiment in a line: pull-down.
Series [3] addresses K6 diUb phosphorylated on S65 of the distal Ub (UniProt P0CG47, K6R). In words: pull-down.
In series [4] the target is K6 diUb phosphorylated on S65 of both Ub molecules (UniProt P0CG47, K6R). The experiment in a line: pull-down.
The target in series [5] is M1-linked diubiquitin (UniProt P0CG47). In words: pull-down.
Series [6] shares this target. In words: crystal structure.
The target in series [7] is NEMO UBAN (aa 257–364) (human, UniProt Q9Y6K9 257-364). In words: pull-down.

Here are results for five molecules from paper PMC11372445 (Cell Reports, 2024).

B1: OPTN UBAN (aa 419–512) C472S, S473E (domain or fragment)
chain: DRAVLKELSEKLELAEKALASKQLQMDEMKQTIAKQEEDLETMTILRAQMEVYSEDFHAERAAREKIHEEKEQLALQLAVLLKENDAFEDGGRQ
In the case of B1, the binding result in series [1] is on record as “binds”.

B2: GST-tagged TAB2 NZF (aa 585–693) (domain or fragment)
chain: QIPSLEEMQQLRSCNRQLQIDIDCLTKEIDLFQARGPHFNPSAIHNFYDNIGFVGPVPPKPKDQRSIIKTPKTQDTEDDEGAQWNCTACTFLNHPALIRCEQCEMPRHF
Regarding B2, the binding result in series [2], in series [3] and in series [4] was “binds” each time.

B3: NEMO UBAN (257–364) K285C/C347S chemically ubiquitinated on K285C with Ub G76C (other)
chain 1: GMQLEDLKQQLQQAEEALVAKQEVIDKLCEEAEQHKIVMETVPVLKAQADIYKADFQAERQAREKLAEKKELLQEQLEQLQREYSKLKASSQESARIEDMRKRHVEVS
chain 2: […]
With B3, the binding result in series [5] is “binds”.

B4: HOIP NZF1 (aa 351–379), as crystallised (domain or fragment)
chain: RGRWACQSCTFENEAAAVLCSICERPRLA
Consider B4, for which the binding result in series [6] is reported as “binds”.

B5: His6-SUMO-HOIP NZF1 (aa 351–379) (domain or fragment)
chain: RGRWACQSCTFENEAAAVLCSICERPRLA
Turning to B5, the binding result in series [7] is given as “binds”.
